# Source: US20030166143A1 (CADUS TECHNOLOGIES, published 2003)
# T1: human formyl peptide receptor like-1 (FPRL-1) receptor (human, UniProt P25090 1-351)
# T1 sequence (looked up): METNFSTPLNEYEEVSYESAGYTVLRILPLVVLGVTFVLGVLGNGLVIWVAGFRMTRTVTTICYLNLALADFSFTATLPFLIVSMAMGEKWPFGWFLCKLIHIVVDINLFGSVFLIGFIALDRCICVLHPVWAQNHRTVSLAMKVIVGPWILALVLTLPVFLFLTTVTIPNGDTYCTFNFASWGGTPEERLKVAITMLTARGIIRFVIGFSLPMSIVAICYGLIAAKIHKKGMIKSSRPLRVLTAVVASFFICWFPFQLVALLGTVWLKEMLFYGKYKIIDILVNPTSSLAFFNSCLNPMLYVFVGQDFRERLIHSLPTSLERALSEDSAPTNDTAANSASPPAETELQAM
# Legend:
# C5a receptor (human) = C5a receptor (human) (UniProt P21730); assay: cell-based or functional assay
# Chain of C5a receptor (human) (P21730 whole entry): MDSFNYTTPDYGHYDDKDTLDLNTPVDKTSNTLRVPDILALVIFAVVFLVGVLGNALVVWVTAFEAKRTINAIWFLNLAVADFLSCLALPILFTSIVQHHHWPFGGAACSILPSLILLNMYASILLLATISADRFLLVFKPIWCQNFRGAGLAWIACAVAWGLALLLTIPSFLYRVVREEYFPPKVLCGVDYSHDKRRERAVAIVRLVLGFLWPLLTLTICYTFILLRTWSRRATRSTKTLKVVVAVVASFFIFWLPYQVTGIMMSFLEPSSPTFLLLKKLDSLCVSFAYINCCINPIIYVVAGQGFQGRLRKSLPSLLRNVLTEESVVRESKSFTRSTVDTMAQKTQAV
# [1] = molecular target: T1, human formyl peptide receptor like-1 …; assay: cell-based or functional assay
"fold increase in lacZ expression (fus1:lacZ, autocrine yeast) (C5a receptor (human)) [fold]",fold stimulation of β-galactosidase (fus1-lacZ) over background [1] [fold],Molecule
8 to 12,–,native C5a ligand (from UniProt P01031 678-751)
–,8,"SLLWLTCRPWEAM [peptide A5, Ser-Leu-Leu-Trp-Leu-Thr-Cys-Arg-Pro-Trp-Glu-Ala-Met]"
